These are literature values, as cited in article PMC3253018.

What is called Kd is the concentration at which binding is half-saturated.

The data set concerns the target NiV-G attachment glycoprotein (Nipah virus) (UniProt Q9IH62).

Chain of NiV-G attachment glycoprotein (Nipah virus) (Q9IH62 whole entry): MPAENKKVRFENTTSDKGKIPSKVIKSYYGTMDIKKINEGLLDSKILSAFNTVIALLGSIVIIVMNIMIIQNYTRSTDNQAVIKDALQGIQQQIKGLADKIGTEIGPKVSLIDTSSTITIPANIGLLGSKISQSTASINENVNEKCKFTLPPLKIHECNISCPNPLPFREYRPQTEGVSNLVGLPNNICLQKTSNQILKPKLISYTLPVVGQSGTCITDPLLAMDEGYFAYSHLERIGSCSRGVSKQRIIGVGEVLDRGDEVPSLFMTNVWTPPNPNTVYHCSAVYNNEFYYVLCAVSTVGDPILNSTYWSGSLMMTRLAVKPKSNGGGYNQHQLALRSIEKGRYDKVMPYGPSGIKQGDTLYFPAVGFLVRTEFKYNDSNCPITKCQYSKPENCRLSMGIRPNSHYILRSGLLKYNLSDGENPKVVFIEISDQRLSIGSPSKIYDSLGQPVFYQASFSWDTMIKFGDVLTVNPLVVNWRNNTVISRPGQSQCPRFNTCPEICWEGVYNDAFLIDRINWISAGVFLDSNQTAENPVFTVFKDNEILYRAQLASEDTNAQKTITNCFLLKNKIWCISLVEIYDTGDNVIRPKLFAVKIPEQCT
Chain of ephrinB2 (P52799 28-333): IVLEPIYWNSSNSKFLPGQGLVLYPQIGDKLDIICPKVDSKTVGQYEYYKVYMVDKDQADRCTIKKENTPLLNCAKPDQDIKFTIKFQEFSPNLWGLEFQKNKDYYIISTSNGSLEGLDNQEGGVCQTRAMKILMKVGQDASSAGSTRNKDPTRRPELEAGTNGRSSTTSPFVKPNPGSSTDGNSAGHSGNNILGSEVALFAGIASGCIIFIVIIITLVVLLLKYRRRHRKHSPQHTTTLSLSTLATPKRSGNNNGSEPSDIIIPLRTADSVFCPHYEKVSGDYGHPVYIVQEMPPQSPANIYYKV

For ephrinB2 (from UniProt P52799), the Kd was 0.06 nM.
